Laboratory results published in patent US20250042946A1, “Biological Production of Histidine-Rich Peptides” (Oakgrove Bio LLC, priority 2021, published 2025).

Tests used:
[1] = type: physicochemical
Protocol: After the acid-based purification step at acidic pH described in Example 5, the neutralized insoluble fusion peptides were washed again with water to remove traces of buffer and were resuspended in 1 mL of 10 mM HCl pH 2. The precipitates resolubilized immediately thus highlighting the rapid, reversible and pH-controllable properties of the peptide fusions to IFPs The tubes containing the solubilized fusion peptides were incubated at 80° C. for 4 hours to allow the cleavage of the Asp-Pro acid-labile peptide bond in the linker connecting the IFP and the POI. After four hours at 80° C., the solutions were neutralized back to a pH comprised between 6.5 and 8.0 by addition of 60 μL of 500 mM Tris Base Tris per mL of pH 2 peptide solution. For most fusions, the neutralization was accompanied by the immediate formation of precipitates. When only a light precipitate was observed, the buffer was adjusted to neutrality by careful addition of HCl or of buffer base. The neutralized fractions were placed at −20° C. for 20 min to enhance precipitation, and then subsequently thawed and centrifuged at 20,000×g for 5 min. The supernatants were transferred to a new tube and the pellets resuspended in 1 ml of water. Aliquots of soluble and insoluble fractions were analyzed by PAGE.

[2] = type: physicochemical; remark: listed apart in the source
Protocol: After 15 min at pH 2, the acidified supernatant fraction were neutralized by addition of 40 μL 500 mM Tris base or 60 μL of Bis-Tris base per mL of pH 2 fraction to reach a pH comprised between 6.5 and 8.0. For most fusions, the neutralization was accompanied by the immediate formation of a precipitate. When only a light precipitate was observed, the buffer was adjusted to neutrality by addition of HCl or of buffer base. The neutralized fractions were placed at −20° C. for 20 min and were subsequently thawed. The neutralized fractions were then centrifuged at 20,000×g for 5 min. Their supernatant was discarded and the pellets containing the insoluble fusion peptides resuspended in 1 ml of water.

[3] = type: physicochemical; settings: pH 2
Protocol: To evaluate the useful solubilization of the IFPs at acidic and alkaline pH (from pH 2 to pH 12), the insoluble fractions of cell extracts expressing selected IFPs were produced as described in Example 2. They were pelleted by centrifugation for 5 min at 20,000×g and washed with water several times to remove the buffer. The washed pellets were resuspended in 10 mM HCl pH 2 or in 10 mM NaOH pH 12. Suspensions were mixed vigorously and allowed to stand at room temperature for 15 min at which time they were centrifuged again for 5 min at 20,000×g. The solubilization of the IFPs in either acidic (pH 2) or alkaline (pH 12) conditions was assessed by PAGE analysis of an aliquot of the centrifugation supernatant.
Cells were harvested by centrifugation at 20,000×g, resuspended in 1 mL of 25 mM Tris […] pH 7.5 and disrupted with a bead beater as described in Example 2. Following cell disruption and centrifugation, the insoluble fractions were washed several times in deionized water to remove traces of buffer and then recovered by centrifugation. The fractions were resuspended in 1 mL of 10 mM HCl pH 2 with repeated vortexing over 15 min at room temperature. […] Aliquots of each fraction corresponding to a same initial volume of cell extracts were analyzed by SDS-PAGE.

[4] = Soluble versus insoluble fraction of E. coli cell extracts, SDS-PAGE; type: physicochemical; settings: cell extract in 25 mM Tris 50 mM NaCl pH 7.5, centrifugation 20,000×g
Protocol: To determine the soluble versus insoluble cell contents, cells from each of the 3 mL cultures were harvested by centrifugation and the pellet resuspended in 1 ml of 25 mM Tris 50 mM NaCl PH 7.5 buffer. The cell suspensions were transferred in 2 mL screw cap tubes containing 0.5 mL of ZrO2/SiO4 0.1 mm beads (Research Product International, Mount Prospect, IL) and disrupted in a FastPrep-24™ bead beater (MP Bio Irvine, CA) for 1 min at 5 m/s. After disruption, the cell extracts were transferred to new microfuge tubes. The soluble and insoluble fractions were then separated by centrifugation at 20,000×g for 5 min. The supernatants containing the soluble proteins were transferred to new tubes and the pellets containing the inclusion bodies were resuspended in the same volume of Tris-NaCl buffer.
Ten μL aliquots of the soluble fraction and of the particulate fraction are analyzed by SDS-PAGE using precast NuPAGE™ Bis-Tris 12% polyacrylamide gels (Thermo Scientific) as indicated by the manufacturer. After electrophoresis, the proteins and peptides were visualized by staining with GelCode™ Blue Safe Protein Coomassie Stain (Thermo Scientific).

Molecule	solubility at neutral pH after acid cleavage (partition supernatant / pellet) [1]	re-insolubilization (precipitation) upon neutralization [2]	solubilization at acidic pH [3]	solubility of the polypeptide as expressed in E. coli [4]
Apidaecin	recovered in the soluble fraction	–	–	–
IFP534: insolubility fusion partner, 4 × QQHYHYHQQ, GGGG linker, SEQ ID NO: 62	remains in the insoluble fraction	–	–	–
Lunasin	recovered in the soluble fraction	–	–	–
IFP221: insolubility fusion partner of IFP221-Api; 3 × QQEYHYHYHYRQQ with GGGG spacers as in SEQ ID NO: 94 (protein) MASGGGQQEYHYHYHYRQQGGGGQQEYHYHYHYRQQGGGGQQEYHYHYHYRQQGGGDPGGGNNRPVYIPQPRPPHPRLGGGGDPGGGNNRPVYIPQPRPPHPRLGGGGDPGPGPHHHHHH	remains in the insoluble fraction	–	–	–
IIP003: insoluble immunogenic peptide, 6 × SAP162 with 3 × Ova1, Structure 9, SEQ ID NO: 104 (protein) MASGGDPGGHQEYHYHYRQHGGGGSIINFEKLGGGGHQEYHYHYRQHGGDPGGHQEYHYHYRQHGGGGSIINFEKLGGGGHQEYHYHYRQHGGDPGGHQEYHYHYRQHGGGGSIINFEKLGGGGHQEYHYHYRQHGGDPGGPGPGP	–	re-insolubilization	solubilization	produced insolubly
IFP-Luna-006: split fusion, two copies of Lunasin sandwiched between three copies of IFP100, SEQ ID NO: 102 (protein) MASGGGQQHYHYHQQGGGGQQHYHYHQQGGDPGGSKWQHQQDSCRKQLQGVNLTPCEKHIMEKIQGRGDDDDDDDDDPGGGGQQHYHYHQQGGGGQQHYHYHQQGGDPGGSKWQHQQDSCRKQLQGVNLTPCEKHIMEKIQGRGDDDDDDDDDPGGGGQQHYHYHQQGGGGQQHYHYHQQGGGPGPGPHHHHHH	–	–	–	expressed the split fusion insolubly
IFP-Api-003: split fusion, Apidaecin sandwiched between two copies of IFP100, cLNK GGDPGG, SEQ ID NO: 98 (protein) MASGGGQQHYHYHQQGGGGQQHYHYHQQGGDPGGGNNRPVYIPQPRPPHPPRGGDPGGQQHYHYHQQGGGGQQHYHYHQQGGGPGPGPHHHHHH	–	–	–	expressed the split fusion insolubly
IIP015: insoluble immunogenic peptide, 6 × SAP234 with 3 × Ova1, Structure 9, SEQ ID NO: 114 (protein) MASGGDPGGQQHYHYHQQGGGGSIINFEKLGGGGQQHYHYHQQGGDPGGQQHYHYHQQGGGGSIINFEKLGGGGQQHYHYHQQGGDPGGQQHYHYHQQGGGGSIINFEKLGGGGQQHYHYHQQGGDPGGPGPGP	–	re-insolubilization	solubilization	produced insolubly
IFP-Api-006: split fusion, two copies of Apidaecin sandwiched between three copies of IFP100, SEQ ID NO: 100 (protein) MASGGGQQHYHYHQQGGGGQQHYHYHQQGGDPGGGNNRPVYIPQPRPPHPPRGGDPGGQQHYHYHQQGGGGQQHYHYHQQGGDPGGGNNRPVYIPQPRPPHPPRGGDPGGQQHYHYHQQGGGGQQHYHYHQQGGGPGPGPHHHHH	–	–	–	expressed the split fusion insolubly
